B1: NF-kappa-B inhibitor alpha (Homo sapiens), P25963 (parent)
chain: MFQAAERPQEWAMEGPRDGLKKERLLDDRHDSGLDSMKDEEYEQMVKELQEIRLEPQEVPRGSEPWKQQLTEDGDSFLHLAIIHEEKALTMEVIRQVKGDLAFLNFQNNLQQTPLHLAVITNQPEIAEALLGAGCDPELRDFRGNTPLHLACEQGCLASVGVLTQSCTTPHLHSILKATNYNGHTCLHLASIHGYLGIVELLVSLGADVNAQEPCNGRTALHLAVDLQNPDLVSLLLKCGADVNRVTYQGYSPYQLTWGRPSTRIQQQLGQLTLENLQMLPESEDEESYDTESEFTEFTEDELPYDDCVFGGQRLTL
partner: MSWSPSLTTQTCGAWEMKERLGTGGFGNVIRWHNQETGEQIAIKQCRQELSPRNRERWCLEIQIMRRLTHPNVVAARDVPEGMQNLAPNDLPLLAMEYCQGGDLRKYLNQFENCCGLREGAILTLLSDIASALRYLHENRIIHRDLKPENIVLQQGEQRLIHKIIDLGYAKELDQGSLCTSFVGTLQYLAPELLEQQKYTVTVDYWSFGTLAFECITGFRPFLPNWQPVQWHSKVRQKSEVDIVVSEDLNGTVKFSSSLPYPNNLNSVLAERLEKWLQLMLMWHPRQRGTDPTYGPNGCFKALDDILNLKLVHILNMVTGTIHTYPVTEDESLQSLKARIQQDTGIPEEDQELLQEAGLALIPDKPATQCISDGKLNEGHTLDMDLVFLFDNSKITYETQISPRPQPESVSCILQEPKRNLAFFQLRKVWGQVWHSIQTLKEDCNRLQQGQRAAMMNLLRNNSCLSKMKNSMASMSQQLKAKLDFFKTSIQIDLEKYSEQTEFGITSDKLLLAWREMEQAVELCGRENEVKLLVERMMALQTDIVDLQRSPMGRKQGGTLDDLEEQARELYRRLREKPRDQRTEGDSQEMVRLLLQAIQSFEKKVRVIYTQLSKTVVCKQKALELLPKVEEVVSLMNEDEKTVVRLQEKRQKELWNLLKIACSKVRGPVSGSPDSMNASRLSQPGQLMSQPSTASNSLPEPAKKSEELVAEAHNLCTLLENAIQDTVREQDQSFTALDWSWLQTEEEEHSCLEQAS

Variants of: B1
Conditions: with ikkb_human IKBKB

| Variant | effect of a mutation on the interaction |
| --- | --- |
| MFQAAERPQEWAMEGPRDGLKKERLLDDRHDAGLDAMKDEEYEQMVKELQEIRLEPQEVPRGSEPWKQQLTEDGDSFLHLAIIHEEKALTMEVIRQVKGDLAFLNFQNNLQQTPLHLAVITNQPEIAEALLGAGCDPELRDFRGNTPLHLACEQGCLASVGVLTQSCTTPHLHSILKATNYNGHTCLHLASIHGYLGIVELLVSLGADVNAQEPCNGRTALHLAVDLQNPDLVSLLLKCGADVNRVTYQGYSPYQLTWGRPSTRIQQQLGQLTLENLQMLPESEDEESYDTESEFTEFTEDELPYDDCVFGGQRLTL [S32A;S36A] | decreasing interaction |
